Test results: publication PMC2810336, “Mutational Analysis of Highly Conserved Residues in the Phage PhiC31 Integrase Reveals Key Amino Acids Necessary for the DNA Recombination”
Where a chain is given by its changes, count along the chain named.

How the values were obtained:
Experiment in all cases: EMSA; 400 nM protein; 50 ng/ul Poly (competitor (so in the source)), 0.05% NP-40, 50 mM KCl, 5 mM MgCl2, 10 mM EDTA, 20 ul, 0.4 ng (16 fmol) probe; 30 min at room temperature (Methods) or 30 C; pH not stated; synapsis 2 h at 30 C
Conditions in all cases: protein: recombinant; tags: C-terminal His; chain copies: 2; label: biotin, double-strand end-labeled; blunt
[1] = biological target: T1, phiC31 integrase C376A/G377A (Streptomyces phage phiC31, UniProt Q38194 1-613, C376A;G377A)
T1 sequence: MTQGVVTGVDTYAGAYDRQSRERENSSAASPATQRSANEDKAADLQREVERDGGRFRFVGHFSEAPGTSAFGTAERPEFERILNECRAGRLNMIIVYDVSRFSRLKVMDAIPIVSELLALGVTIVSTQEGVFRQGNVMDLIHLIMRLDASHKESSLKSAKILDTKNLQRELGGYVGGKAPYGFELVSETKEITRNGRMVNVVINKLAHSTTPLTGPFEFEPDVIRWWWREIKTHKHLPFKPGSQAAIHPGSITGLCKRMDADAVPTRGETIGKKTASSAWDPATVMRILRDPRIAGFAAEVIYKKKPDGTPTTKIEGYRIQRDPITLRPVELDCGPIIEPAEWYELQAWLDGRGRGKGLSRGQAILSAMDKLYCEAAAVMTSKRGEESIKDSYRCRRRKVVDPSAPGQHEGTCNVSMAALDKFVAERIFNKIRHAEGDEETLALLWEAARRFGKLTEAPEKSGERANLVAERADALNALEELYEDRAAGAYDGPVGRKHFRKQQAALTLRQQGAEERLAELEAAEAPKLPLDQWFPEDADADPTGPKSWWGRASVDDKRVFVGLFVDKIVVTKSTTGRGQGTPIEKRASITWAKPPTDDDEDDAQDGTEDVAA

[2] = biological target: T2, phiC31 integrase V571A (Streptomyces phage phiC31, UniProt Q38194 1-613, V571A)
T2 sequence: T1 sequence with A376C, A377G, V571A

[3] = biological target: T3, phiC31 integrase G182A/F183A (Streptomyces phage phiC31, UniProt Q38194 1-613, G182A;F183A)
T3 sequence: T1 sequence with G182A, F183A, A376C, A377G

B1: attB 41 bp (dsDNA)
DNA 1: CGGGTGCCAGGGCGTGCCCTTGGGCTCCCCGGGCGCGTACT
DNA 2: AGTACGCGCCCGGGGAGCCCAAGGGCACGCCCTGGCACCCG
[1]
  binding signal: 0 % of WT
[2]
  binding signal: 15.6 ± 1.7 % of WT
[3]
  binding signal: 0 % of WT
